The target in data set [1] is T1, 6His-tagged full-length Rbg1 (yeast) (UniProt P39729).
T1 sequence: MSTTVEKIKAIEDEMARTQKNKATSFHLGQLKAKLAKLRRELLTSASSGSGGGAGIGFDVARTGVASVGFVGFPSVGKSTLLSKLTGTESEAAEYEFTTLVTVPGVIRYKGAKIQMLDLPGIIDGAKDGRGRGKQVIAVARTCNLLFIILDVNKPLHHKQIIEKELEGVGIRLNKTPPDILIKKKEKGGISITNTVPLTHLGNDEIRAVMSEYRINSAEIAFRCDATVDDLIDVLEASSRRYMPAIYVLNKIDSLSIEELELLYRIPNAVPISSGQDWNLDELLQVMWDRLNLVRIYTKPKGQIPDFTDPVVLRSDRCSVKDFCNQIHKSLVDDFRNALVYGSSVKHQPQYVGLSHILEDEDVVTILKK

Substrate in data set [2]: Nc1nc2c(ncn2[C@@H]2O[C@H](COP(=O)(O)OP(=O)(O)OP(=O)(O)O)[C@@H](O)[C@H]2O)c(=O)[nH]1
Nature of the data set: malachite green phosphate release. It is filed as biochemical, Saccharomyces cerevisiae. The note with it: 100 mM KCl, 50 mM Tris pH 7.5, 5 mM MgCl2, 37°C, 1 h, 20 μM protein. From the text: malachite green phosphate release on Rbg1fl–Tma46_205–345

Substrate in data set [3]: Nc1nc2c(ncn2[C@@H]2O[C@H](COP(=O)(O)OP(=O)(O)OP(=O)(O)O)[C@@H](O)[C@H]2O)c(=O)[nH]1
Description: malachite green phosphate release. In kind it is biochemical, Saccharomyces cerevisiae. The note with it: 100 mM KCl, 50 mM Tris pH 7.5, 5 mM MgCl2, 37°C, 1 h, 20 μM protein. From the text:
malachite green phosphate release on Rbg1fl–Tma46_239–345 (Tma46Δα1)
This is another data set of the same source.

Substrate in data set [4]: Nc1nc2c(ncn2[C@@H]2O[C@H](COP(=O)(O)OP(=O)(O)OP(=O)(O)O)[C@@H](O)[C@H]2O)c(=O)[nH]1
Nature of the data set: malachite green phosphate release. The note with it: 100 mM KCl, 50 mM Tris pH 7.5, 5 mM MgCl2, 37°C, 1 h, 20 μM protein. In kind it is biochemical, Saccharomyces cerevisiae. From the text: malachite green phosphate release on Rbg1_1–294–Tma46_205–345 (ΔTGS)
This is another data set of the same source.

B1: Tma46_(205–345 I241A) (domain or fragment)
chain: EQKRLERESLEKQPKITLEEFIETERGKLDKSKLTPATIANFAQWKKDHVIAKINAEKKLSSKRKPTGREIILKMSAENKSFETDNADMPDDVTQGSAWDLTEFTDALKKADHQDDGGIKDYGDGSNPTFDIKKANSATLA
In data set [1], B1 displayed a GTP hydrolysis (Malachite green), Vmax (nmol min^−1 mg^−1) of 0.0406 and a GTP hydrolysis (Malachite green), kcat of 0.0023 min⁻¹.

B2: Tma46_(205–345 I241A, F246A) (domain or fragment)
chain: EQKRLERESLEKQPKITLEEFIETERGKLDKSKLTPATIANAAQWKKDHVIAKINAEKKLSSKRKPTGREIILKMSAENKSFETDNADMPDDVTQGSAWDLTEFTDALKKADHQDDGGIKDYGDGSNPTFDIKKANSATLA
Turning to B2, in data set [1], the GTP hydrolysis (Malachite green), Vmax (nmol min^−1 mg^−1) was 0.0288 and the GTP hydrolysis (Malachite green), kcat stood at 0.0017 min⁻¹.

B3: Tma46_(205–345 W249A K250E) (domain or fragment)
chain: EQKRLERESLEKQPKITLEEFIETERGKLDKSKLTPITIANFAQAEKDHVIAKINAEKKLSSKRKPTGREIILKMSAENKSFETDNADMPDDVTQGSAWDLTEFTDALKKADHQDDGGIKDYGDGSNPTFDIKKANSATLA
In data set [1], B3 had a GTP hydrolysis (Malachite green), Vmax (nmol min^−1 mg^−1) of 0.0345 and a GTP hydrolysis (Malachite green), kcat of 0.002 min⁻¹.

B4: Rbg1fl–Tma46_205–345 (Saccharomyces cerevisiae S288C) (protein)
chain: MSTTVEKIKAIEDEMARTQKNKATSFHLGQLKAKLAKLRRELLTSASSGSGGGAGIGFDVARTGVASVGFVGFPSVGKSTLLSKLTGTESEAAEYEFTTLVTVPGVIRYKGAKIQMLDLPGIIDGAKDGRGRGKQVIAVARTCNLLFIILDVNKPLHHKQIIEKELEGVGIRLNKTPPDILIKKKEKGGISITNTVPLTHLGNDEIRAVMSEYRINSAEIAFRCDATVDDLIDVLEASSRRYMPAIYVLNKIDSLSIEELELLYRIPNAVPISSGQDWNLDELLQVMWDRLNLVRIYTKPKGQIPDFTDPVVLRSDRCSVKDFCNQIHKSLVDDFRNALVYGSSVKHQPQYVGLSHILEDEDVVTILKK
notes: 6His-tagged full-length Rbg1 (N-terminal tag) co-expressed in E. coli with Tma46 residues 205-345; heterodimer; with Translation machinery-associated protein 46
B4: in data set [2], the Km is 304.1 ± 32.5 µM, the Vmax is 5.93e-05 µmol/min/mg and the kcat stood at 5.67e-05 s⁻¹.

B5: Rbg1fl–Tma46_239–345 (Tma46Δα1) (Saccharomyces cerevisiae S288C) (protein)
chain: MSTTVEKIKAIEDEMARTQKNKATSFHLGQLKAKLAKLRRELLTSASSGSGGGAGIGFDVARTGVASVGFVGFPSVGKSTLLSKLTGTESEAAEYEFTTLVTVPGVIRYKGAKIQMLDLPGIIDGAKDGRGRGKQVIAVARTCNLLFIILDVNKPLHHKQIIEKELEGVGIRLNKTPPDILIKKKEKGGISITNTVPLTHLGNDEIRAVMSEYRINSAEIAFRCDATVDDLIDVLEASSRRYMPAIYVLNKIDSLSIEELELLYRIPNAVPISSGQDWNLDELLQVMWDRLNLVRIYTKPKGQIPDFTDPVVLRSDRCSVKDFCNQIHKSLVDDFRNALVYGSSVKHQPQYVGLSHILEDEDVVTILKK
notes: 6His-tagged full-length Rbg1 with Tma46 residues 239-345 (lacks helix α1), expressed in E. coli; with Translation machinery-associated protein 46
Turning to B5, in data set [3], the Km amounted to 191.2 ± 26.6 µM, the Vmax stood at 3.7e-05 µmol/min/mg and the kcat was 3.33e-05 s⁻¹.

B6: Rbg1_1–294–Tma46_205–345 (ΔTGS) (Saccharomyces cerevisiae S288C) (protein)
chain: MSTTVEKIKAIEDEMARTQKNKATSFHLGQLKAKLAKLRRELLTSASSGSGGGAGIGFDVARTGVASVGFVGFPSVGKSTLLSKLTGTESEAAEYEFTTLVTVPGVIRYKGAKIQMLDLPGIIDGAKDGRGRGKQVIAVARTCNLLFIILDVNKPLHHKQIIEKELEGVGIRLNKTPPDILIKKKEKGGISITNTVPLTHLGNDEIRAVMSEYRINSAEIAFRCDATVDDLIDVLEASSRRYMPAIYVLNKIDSLSIEELELLYRIPNAVPISSGQDWNLDELLQVMWDRLNLV
notes: 6His-tagged Rbg1 lacking TGS domain (residues 1-294), co-expressed in E. coli with Tma46 205-345; with Translation machinery-associated protein 46
As to B6, in data set [4], the Km worked out at 426.3 ± 165 µM, the Vmax worked out at 1.66e-05 µmol/min/mg and the kcat worked out at 1.33e-05 s⁻¹.

Usually Km stands for the concentration of substrate that gives half-maximal velocity. The term Vmax denotes the top rate of the reaction or transport when substrate is in excess. Usually kcat stands for the number of substrate molecules converted per active site and unit of time at saturation.

(Values after article PMC3510508, “Rbg1–Tma46 dimer structure reveals new functional domains and their role in polysome recruitment” (Nucleic Acids Research, 2012).)
